± gives the standard deviation of the averaged measurements.
System: ATP
Assay: switch fluorescence ratio, 500 uM ATP over buffer (Cy3 cluster intensity, sum of 5 cycles each) (fold (ratio)); higher = stronger signal-on switching upon ATP binding; sequences stand for … in TCGTCGGCAGCGTCAGATGTGTATAAGAGACAGTTTTTTTTTTTTTTTTTTTTTTTTT…TC
Conditions: aptamer strand: ATP DNA aptamer (quencher-CACCTGGGGGAGTATTGCGGAGGAAGG + anchor), 100 nM annealed; ATP concentration: 500 uM
Procedure, shortened: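 Values give the fluorescence ratio for each switch-domain sequence, averaged from per-cluster ratios of summed target-cycle to summed buffer-cycle Cy3 intensity. The Cy3-labelled switching-strand clusters sat on a modified Illumina MiSeq flow-cell, were annealed to 100 nM quencher-labelled ATP aptamer, and were imaged in selection buffer, then after 15 min with 500 uM ATP at 22 °C. Five cycles ran with NaOH stripping and re-annealing between them, and clusters outside 100-1000 RFU were excluded.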
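Also: ATP exposure 15 min at 22 °C before imaging.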

Row | Sequence | switch fluorescence ratio
1 | GCTTGTACGT | 1.021 ± 0.0096
2 | TCAATTTTGC | 1.02 ± 0.034
3 | GACGATCCTG | 1.08 ± 0.043
4 | ACGGGTTGTC | 0.981 ± 0.11
5 | TTATCTGATT | 0.9952 ± 0.0017
6 | AGCATTGGGT | 1.002 ± 0.0015
7 | TAAAATTGTA | 0.9917 ± 0.0035
8 | TCAATTTTTT | 0.993 ± 0.016
9 | TTTTTTGACT | 0.995 ± 0.04
10 | TGCGTCTTTG | 1.01 ± 0.034
11 | TGGGACGGGC | 0.98 ± 0.049
12 | TGCGGGGTCG | 1.01 ± 0.016
13 | GAAGCTTATA | 1.251 ± 0.0019
14 | TGATTATCTT | 1.047 ± 0.0097
15 | GGACTAGGAG | 1.05 ± 0.012
16 | GGAGATTTTG | 1 ± 0.042
17 | AGATACTTGA | 1.01 ± 0.014
18 | TAGAAGGGGG | 0.965 ± 0.016
19 | TAGAGGGGAT | 0.985 ± 0.027
20 | GTGATGGGGT | 1.01 ± 0.038
21 | GTTAGGTCAG | 0.997 ± 0.028
22 | GGTCGAAGGC | 0.9859 ± 0.0069
23 | GTTTGCAGCA | 1.03 ± 0.027

Row | Sequence | switch fluorescence ratio
24 | GGGCTGAGGA | 1 ± 0.036
25 | AGAGGTAGGA | 0.979 ± 0.016
26 | AAATAATTGG | 1.09 ± 0.013
27 | GGGAAATTGA | 1.01 ± 0.031
28 | ACAGTTGGTT | 0.99 ± 0.06
29 | TAGTTGGTCT | 0.974 ± 0.028
30 | CATTGTAAAG | 1.02 ± 0.033
31 | CAATGGGTAT | 0.978 ± 0.014
32 | ACTTGGGCTT | 1.03 ± 0.051
33 | TGGGAAGAGT | 0.996 ± 0.028
34 | AGTTCCGGGA | 1.02 ± 0.067
35 | TTTTATACTT | 1 ± 0.011
36 | CGAGGGGATT | 1.25 ± 0.54
37 | CGGGTACTTT | 1 ± 0.059
38 | TATAAATGTT | 0.9936 ± 0.0065
39 | AGTATAGAAA | 0.978 ± 0.0065
40 | GTAATAGTAT | 1.006 ± 0.0061
41 | ATCATTTTTT | 0.9877 ± 0.0061
42 | AGTATTCAGG | 1 ± 0.027
43 | AGGGAAAAGG | 1.02 ± 0.031
44 | GTTTTACATT | 1.02 ± 0.021
45 | CCGAAGGGTA | 1.1 ± 0.022
46 | GATGATTTTA | 1.02 ± 0.042

Row | Sequence | switch fluorescence ratio
47 | ATGTAGGGGC | 1.03 ± 0.046
48 | GGTATAGTTG | 0.993 ± 0.041
49 | TATACGTTTT | 1.12 ± 0.14
50 | TAAGATTACA | 1.017 ± 0.006
51 | CACCGAGATT | 1.07 ± 0.076
52 | TGCATTAGGG | 0.993 ± 0.046
53 | GGTAAAGATA | 0.986 ± 0.019
54 | GAATCGGCGT | 0.991 ± 0.058
55 | TGCGGGCAAT | 1.1 ± 0.039
56 | TTTGCAACGA | 1.25 ± 0.31
57 | AAGGGTGGTC | 0.957 ± 0.012
58 | TTTGGCTGGG | 0.985 ± 0.02
59 | GGGGGGGTTG | 1.01 ± 0.083
60 | TTGGGGGCGC | 1.01 ± 0.031
61 | TATGGGCAGT | 1.007 ± 0.0017
62 | TTTGAATCGG | 0.97 ± 0.027
63 | GATATTATGA | 1.01 ± 0.01
64 | CGAGGCCTGG | 1 ± 0.011
65 | AAGGGGCAGG | 1.04 ± 0.084
66 | TAGTGGGCGG | 1.07 ± 0.046
67 | TTAGTTTATG | 0.981 ± 0.017
68 | TTTTAAAGTT | 0.968 ± 0.018
69 | AAGTTGGTTC | 0.98 ± 0.052

Row | Sequence | switch fluorescence ratio
70 | GCTAGGCCTC | 1.01 ± 0.038
71 | ATGGATTTT | 1.001 ± 0.0019
72 | TTTTTTCATT | 1.02 ± 0.052
73 | GATTTTATTG | 1.01 ± 0.017
74 | TCGTACTTTT | 0.989 ± 0.05
75 | CGGTATTATG | 0.993 ± 0.022
76 | GGTTAAAGCG | 1.02 ± 0.013
77 | AAACTTTGTT | 1.02 ± 0.039
78 | TATGGATAGT | 0.998 ± 0.017
79 | CAAGTGGCAT | 1.017 ± 0.0079
80 | TTATATCAGA | 1.016 ± 0.0083
81 | CGGGTCTAAA | 0.9966 ± 0.0027
82 | GCAAATGATG | 1.01 ± 0.012
83 | TGTTAGGGG | 1 ± 0.049
84 | CTTTGGAGTG | 1.23 ± 0.38
85 | ATATGGATTG | 1 ± 0.015
86 | TTTTATCCA | 1.016 ± 0.0095
87 | CGTTTAAGGG | 0.9819 ± 0.0074
88 | TCATTTAGGT | 0.967 ± 0.013
89 | CAAACGTGTG | 0.991 ± 0.041
90 | ATCGGGTTAG | 0.998 ± 0.016
91 | CATCGATGTT | 1.025 ± 0.0064
92 | CAAGCTTAAA | 0.9729 ± 0.009

Row | Sequence | switch fluorescence ratio
93 | AGGGGTTGTG | 1 ± 0.024
94 | AAGGAGTATT | 1.01 ± 0.026
95 | CCGAGTTGTG | 1.05 ± 0.041
96 | ACAGGACAGC | 1.14 ± 0.049
97 | CCGGTTAGGG | 0.991 ± 0.029
98 | TGTCAAAAAC | 1.28 ± 0.29
99 | ACCGGAGGGC | 0.9905 ± 0.0044
100 | AAAGTATATA | 1.02 ± 0.04
101 | GAGGGGCACG | 0.935 ± 0.1
102 | ATGAGAATTA | 1.006 ± 0.0023
103 | TTTTTTCCCA | 1.01 ± 0.011
104 | GGGGATCTTA | 1 ± 0.031
105 | ATAGTTATTG | 1.01 ± 0.022
106 | GTGCTTGGCC | 1 ± 0.047
107 | TTTGTTTGAG | 0.991 ± 0.037
108 | CGGGAGGTAA | 0.9863 ± 0.0038
109 | ACATTCGACC | 1.11 ± 0.062
110 | ATTATTGACT | 1.04 ± 0.014
111 | AGTCCTGGAG | 0.993 ± 0.044
112 | TTTGATATTA | 0.994 ± 0.026
113 | TGGTCGCCGT | 0.978 ± 0.14
114 | ATCGTATACC | 1.01 ± 0.022
115 | AATTAGGTGC | 1.14 ± 0.077

Row | Sequence | switch fluorescence ratio
116 | ATTGTTGATC | 1.01 ± 0.029
117 | CAGACCGTTT | 1.01 ± 0.018
118 | GGTAAATTGT | 1.01 ± 0.028
119 | TGGGAGGAAA | 1.01 ± 0.039
120 | AGTGGTTAGT | 1.05 ± 0.027
121 | TCAATGATTT | 0.969 ± 0.022
122 | TTTTGCGTTT | 0.992 ± 0.07
123 | TCGTGTGGAG | 1.01 ± 0.033
124 | GCTAAATTCC | 1.11 ± 0.027
125 | TTAGGATAT | 1.02 ± 0.041
126 | CTCGGTTGGT | 1.006 ± 0.0083
127 | TTATGTGTGT | 0.996 ± 0.028
128 | GGCTGGGTTA | 1 ± 0.026
129 | TACGGTTGGC | 0.989 ± 0.023
130 | GGGAAGTCAG | 1.002 ± 0.0098
131 | GACGGGTTTC | 0.991 ± 0.017
132 | TGGTGAAAGA | 1.01 ± 0.029
133 | GCGGGGGTTA | 0.994 ± 0.018
134 | TGCTGGTTGG | 0.998 ± 0.026
135 | TTTGGGATTA | 0.983 ± 0.041
136 | GTTGTAAGGG | 0.998 ± 0.04
137 | AGGTGCTGGT | 0.997 ± 0.033
138 | GGGGGTCGGT | 1.01 ± 0.048

Row | Sequence | switch fluorescence ratio
139 | TTGGGATCCG | 0.985 ± 0.016
140 | GTGAAGGGTA | 0.985 ± 0.0081
141 | TCATTCCTTT | 1.008 ± 0.0063
142 | TAGAGGGTTT | 1.02 ± 0.045
143 | GAGGGGAAAT | 0.999 ± 0.029
144 | ATGTTAGTGG | 1.01 ± 0.066
145 | TTGTCCGAGC | 1.06 ± 0.023
146 | CTTCTCTTCA | 1.02 ± 0.03
147 | TTTCCGAATG | 1.13 ± 0.026
148 | CACCCTTTGT | 0.9912 ± 0.0036
149 | AGGATTGTGA | 1.02 ± 0.028
150 | TGGTAATTGG | 0.98 ± 0.01
151 | ATTGTCTTCG | 0.987 ± 0.041
152 | TACTGGTCCT | 1.03 ± 0.038
153 | GGGTAATGTA | 1.02 ± 0.014
154 | AACTGTTTGC | 0.983 ± 0.04
155 | TTTTGAGATT | 0.995 ± 0.011
156 | CGATGGGCTA | 1.02 ± 0.056
157 | TCTCAGTGTT | 1.028 ± 0.0064

Source: the supplement of paper PMC10126150
